Numbering of substitutions follows the chain as printed. Where no end group is shown, it is not given here.
T1: AtPEX5C N601A (Arabidopsis thaliana, UniProt Q9FMA3, N601A)
T1 construct: made in house; host or cells: E. coli BL21-Gold (DE3)
T1 sequence (Q9FMA3 340-728 N601A): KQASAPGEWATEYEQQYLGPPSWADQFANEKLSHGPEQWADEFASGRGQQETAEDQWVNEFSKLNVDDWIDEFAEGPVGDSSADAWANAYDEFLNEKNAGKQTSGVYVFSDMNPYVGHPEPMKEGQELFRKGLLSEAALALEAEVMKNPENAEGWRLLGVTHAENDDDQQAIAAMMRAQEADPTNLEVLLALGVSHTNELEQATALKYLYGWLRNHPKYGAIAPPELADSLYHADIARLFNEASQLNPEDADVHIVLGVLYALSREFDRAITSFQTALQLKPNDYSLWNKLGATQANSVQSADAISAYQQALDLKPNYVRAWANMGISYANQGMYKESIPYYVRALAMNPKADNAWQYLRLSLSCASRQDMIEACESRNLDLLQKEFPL

T2: wild-type AtPEX5C (Arabidopsis thaliana, UniProt Q9FMA3)
T2 construct: made in house; host or cells: E. coli BL21-Gold (DE3)
T2 sequence (Q9FMA3 340-728): T1 sequence (Q9FMA3 340-728 N601A) with A262N

T3: AtPEX5C D505H (Arabidopsis thaliana, UniProt Q9FMA3, D505H)
T3 construct: made in house; host or cells: E. coli BL21-Gold (DE3)
T3 sequence (Q9FMA3 340-728 D505H): T1 sequence (Q9FMA3 340-728 N601A) with D166H, A262N

T4: AtPEX5C D505H (Arabidopsis thaliana, UniProt Q9FMA3 340-728, D505H)
T4 construct: Made by site-directed mutagenesis of His6-AtPEX5 (340-728) in pET-28b; also called D505H variant of AtPEX5C; source: E. coli BL21-Gold (DE3), purified (Co-NTA)
T4 sequence (looked up): T1 sequence (Q9FMA3 340-728 N601A) with D166H, A262N

T5: AtPEX5C D505H-D507T-N601A (Arabidopsis thaliana, UniProt Q9FMA3 340-728, D505H | D507T | N601A)
T5 construct: Made by site-directed mutagenesis of His6-AtPEX5 (340-728) in pET-28b; source: E. coli BL21-Gold (DE3), purified (Co-NTA)
T5 sequence (looked up): T1 sequence (Q9FMA3 340-728 N601A) with D166H, D168T

T6: AtPEX5C N601A (Arabidopsis thaliana, UniProt Q9FMA3 340-728, N601A)
T6 construct: Made by site-directed mutagenesis of His6-AtPEX5 (340-728) in pET-28b; also called N601A variant; source: E. coli BL21-Gold (DE3), purified (Co-NTA)
T6 sequence (looked up): T1 sequence (Q9FMA3 340-728 N601A)

T7: AtPEX5C D505H-N601A (Arabidopsis thaliana, UniProt Q9FMA3 340-728, D505H | N601A)
T7 construct: Made by site-directed mutagenesis of His6-AtPEX5 (340-728) in pET-28b; source: E. coli BL21-Gold (DE3), purified (Co-NTA)
T7 sequence (looked up): T1 sequence (Q9FMA3 340-728 N601A) with D166H

T8: His6-tagged A. thaliana PEX5 PTS1-binding domain (residues 340-728), wild type (Arabidopsis thaliana, UniProt Q9FMA3 340-728)
T8 construct: Written 'His6-AtPEX5 (340-728)', in pET-28b; also called AtPEX5C; wild-type AtPEX5C; source: E. coli BL21-Gold (DE3), purified (Co-NTA)
T8 sequence (looked up): T1 sequence (Q9FMA3 340-728 N601A) with A262N

B1: lissamine-YQSKL (peptide)
peptide: {lissamine rhodamine B sulfonyl}-YQSKL
notes: model PTS1 pentapeptide; also called lissamine-labelled YQSKL; model PTS1 peptide; source: synthetic peptide (Fmoc solid-phase synthesis, reverse phase HPLC)
B2: lissamine-YQSYY (peptide)
peptide: {lissamine rhodamine B sulfonyl}-YQSYY
notes: pentapeptide found in the YQSXX library screen; also called lissamine-labelled YQSYY; source: synthetic peptide (Fmoc solid-phase synthesis, reverse phase HPLC)

How the values were obtained:
[1] = molecular target: lissamine-YQSYY; experiment: fluorescence polarisation; fluorescence anisotropy; AtPEX5C or variant serially diluted (from a 40 µM solution) against 100 nM lissamine-labelled peptide tracer; 20 mM HEPES, 150 mM NaCl, pH 7.5; gelatine-blocked 384-well plates; 25 °C, 20 min; fitted to a 1:1 binding model
[2] = molecular target: endogenous PhypaPEX5 (Physcomitrella patens (endogenous in P. patens cells))
[3] = molecular target: T1, AtPEX5C N601A; experiment: Pull down of binding peptides (Co-NTA, LC-MS), AtPEX5C N601A; conditions: […] protein, 500 nM each peptide, pH 8.0, 4 °C, 1 h, semi-quantitative
Description: (§1) The chemical space that can be covered by all possible variants of the receptor and signal sequence is vast (e.g., combined randomization of the two C-terminal PTS1 residues and just six residues within AtPEX5C would result in a library size of 2.6 × 10^10 variants of peptide and protein), which makes the development of an assay for a PEX5*-PTS1* pair problematic. We reduced the dimensionality of this search by designing modifications to the PEX5 component and rapidly surveying which peptide sequences could be bound by each mutated receptor (Fig. 1a). Site-directed variants of a His6-tagged A. thaliana PEX5 PTS1-binding domain (residues 340–728, AtPEX5C)[16], selected by analysis of known crystal structures, were expressed in Escherichia coli. The purified proteins were incubated with a library of pentapeptides, representing known PTS1 and putative PTS1* sequences. After capture of the receptor-peptide complexes on cobalt affinity resin, the bound peptides were eluted and identified by liquid chromatography-mass spectrometry (LC-MS) analysis. […]
(§2) Each peptide sub-library was analyzed using the LC-MS method listed above and an identical chromatographic run in which the mass spectrometer provided automated MS/MS data, using collisional induced fragmentation in the quadrupole. […]

[4] = molecular target: T2, wild-type AtPEX5C; experiment: Pull down of binding peptides (Co-NTA, LC-MS), wild-type AtPEX5C; conditions: […] protein, 500 nM each peptide, pH 8.0, 4 °C, 1 h, semi-quantitative
Description: as §1, §2

[5] = molecular target: T3, AtPEX5C D505H; experiment: Pull down of binding peptides (Co-NTA, LC-MS), AtPEX5C D505H; conditions: […] protein, 500 nM each peptide, pH 8.0, 4 °C, 1 h, semi-quantitative
Description: as §1, §2

[6] = molecular target: T4, AtPEX5C D505H; experiment: fluorescence polarisation; fluorescence anisotropy; AtPEX5C or variant serially diluted (from a 40 µM solution) against 100 nM lissamine-labelled peptide tracer; 20 mM HEPES, 150 mM NaCl, pH 7.5; gelatine-blocked 384-well plates; 25 °C, 20 min; fitted to a 1:1 binding model; conditions: both partners purified
[7] = molecular target: T5, AtPEX5C D505H-D507T-N601A; experiment: as above; conditions: both partners purified
[8] = molecular target: T6, AtPEX5C N601A; experiment: as above; conditions: both partners purified
[9] = molecular target: T7, AtPEX5C D505H-N601A; experiment: as above; conditions: both partners purified
[10] = molecular target: T8, His6-tagged A. thaliana PEX5 …; experiment: as above; conditions: both partners purified

| Molecule | pulled down from library [3] | pulled down from library [4] | pulled down from library [5] | Kd [6] | Kd [7] | Kd [8] | Kd [9] | further results |
| --- | --- | --- | --- | --- | --- | --- | --- | --- |
| His6-tagged A. thaliana PEX5 PTS1-binding domain (residues 340-728), wild type (from UniProt Q9FMA3 340-728) (domain or fragment) |  |  |  |  |  |  |  | Kd [1]: 2700 nM |
| RFP-PTS1 |  |  |  |  |  |  |  | peroxisomal import: localisation score (1-5) of RFP-PTS1 in P. patens cells expressing PEX5* without GFP-PTS1* (score (scale 1-5)) [2]: 4.32 |
| dansyl-YQSFY [member of dansyl-YQSXX pentapeptide library] | bound | not pulled down | bound |  |  |  |  |  |
| dansyl-YQSYY [member of dansyl-YQSXX pentapeptide library] | bound | not pulled down | bound |  |  |  |  |  |
| B1 |  |  |  | 30 nM | 97 nM | 22 nM | 108 nM | Kd [10]: 1.1 nM |
| B2 |  |  |  | 960 nM | 110 nM | 2300 nM | 603 nM |  |

— PMC5587766, “Towards designer organelles by subverting the peroxisomal import pathway” (Nature Communications, 2017)
